Experiment [1] addresses Recombinant soluble human CD62L N104E mutant (residues 1-194, C-terminal six-histidine tag) (human) (UniProt P14151). The experiment can be described thus: SPR. Background: SPR reads the build-up and loss of mass on a sensor chip optically.
Experiment [2] concerns the target Commercial CD62L from R&D systems, Inc. (human) (UniProt P14151). The experiment can be described thus: SPR.

pKd: −log10 of the molar value.

The term pKd denotes the Kd on a negative log10 scale, so that one unit is a factor of ten.

Turning to “type III porcine submaxillary mucin (PSM-III) (natural protein)”, the pKd was 4.36 in experiment [1] and 4.57 in experiment [2].

For the origin of these results see paper PMC4385751.
